Test results taken from paper PMC5821942, “Crystal structure of IspF from Bacillus subtilis and absence of protein complex assembly amongst IspD/IspE/IspF enzymes in the MEP pathway” (Bioscience Reports, 2018).

What was measured:
[1] = biological target: the molecule itself; assay: SEC; Superdex75 10/300 GL; single B. subtilis proteins and triple mixture (0.2 mg each, 250 μl); 100 mM NaCl, 25 mM Tris/HCl pH 8.0; 1 mM MgCl2, 1 mM MEP, 1 mM CTP if IspD present; 30°C 30 min
[2] = biological target: the molecule itself; assay: SEC; Superdex200 10/300 GL; single E. coli proteins and triple mixture (0.2 mg each, 250 μl); 100 mM NaCl, 25 mM Tris/HCl pH 8.0; 1 mM MgCl2, 1 mM MEP, 1 mM CTP if IspD present; 30°C 30 min
[3] = biological target: the molecule itself; assay: crystal structure; BsIspF native and with CMP, space group P2(1), six monomers in the asymmetric unit, 1.99 Å

B1: 2-C-Methyl-D-erythritol-4-phosphate cytidyltransferase (IspD) from Bacillus subtilis (enzyme, Bacillus subtilis 168, UniProt Q06755 1-232, looked up)
chain: MSYDVVIPAAGQGKRMKAGRNKLFIELKGDPVIIHTLRVFDSHRQCDKIILVINEQEREHFQQLLSDYPFQTSIELVAGGDERQHSVYKGLKAVKQEKIVLVHDGARPFIKHEQIDELIAEAEQTGAAILAVPVKDTIKRVQDLQVSETIERSSLWAVQTPQAFRLSLLMKAHAEAERKGFLGTDDASLVEQMEGGSVRVVEGSYTNIKLTTPDDLTSAEAIMESESGNKHV
notes: IspD of B. subtilis 168 (DSM 23778); ispD gene amplified from genomic DNA, ~699 bp product, cloned BamHI/XhoI into pGEX-6P-1; GST removed by PreScission protease; also called BsIspD; source: E. coli DH5α (pGEX-6P-1), purified (Glutathione Sepharose 4 Fast Flow, Resource Q, Superdex 75)
For B1, the “stoichiometry N” value [1] was 2.

B2: 2-C-Methyl-D-erythritol 2,4-cyclodiphosphate synthase (IspF) from Escherichia coli (enzyme, Escherichia coli K12, UniProt P62617 1-159, looked up)
chain: MRIGHGFDVHAFGGEGPIIIGGVRIPYEKGLLAHSDGDVALHALTDALLGAAALGDIGKLFPDTDPAFKGADSRELLREAWRRIQAKGYTLGNVDVTIIAQAPKMLPHIPQMRVFIAEDLGCHMDDVNVKATTTEKLGFTGRGEGIACEAVALLIKATK
notes: IspF of E. coli K12; ispF gene PCR amplified and inserted into pET-22b; histidine tag removed by thrombin; also called EcIspF; source: E. coli BL21 (DE3) (pET-22b), purified (Ni-NTA, Resource Q, Superdex 75); not shown: His6, C-terminal, cleaved
With B2 the “stoichiometry N” value [2] was 3.

B3: 2-C-Methyl-D-erythritol-4-phosphate cytidyltransferase (IspD) from Escherichia coli (enzyme, Escherichia coli K12, UniProt Q46893 1-236, looked up)
chain: MATTHLDVCAVVPAAGFGRRMQTECPKQYLSIGNQTILEHSVHALLAHPRVKRVVIAISPGDSRFAQLPLANHPQITVVDGGDERADSVLAGLKAAGDAQWVLVHDAARPCLHQDDLARLLALSETSRTGGILAAPVRDTMKRAEPGKNAIAHTVDRNGLWHALTPQFFPRELLHDCLTRALNEGATITDEASALEYCGFHPQLVEGRADNIKVTRPEDLALAEFYLTRTIHQENT
notes: IspD of E. coli K12; ispD gene PCR amplified and inserted into pET-22b; histidine tag removed by thrombin; also called EcIspD; source: E. coli BL21 (DE3) (pET-22b), purified (Ni-NTA, Resource Q, Superdex 75); not shown: His6, C-terminal, cleaved
In the case of B3, the “stoichiometry N” value [2] is reported as 2.

B4: 2-C-Methyl-D-erythritol 2,4-cyclodiphosphate synthase (IspF) from Bacillus subtilis (enzyme, Bacillus subtilis 168)
chain: MFRIGQGFDVHQLVEGRPLIIGGIEIPYEKGLLGHSDADVLLHTVADACLGAVGEGDIGKHFPDTDPEFKDADSFKLLQHVWGIVKQKGYVLGNIDCTIIAQKPKMLPYIEDMRKRIAEGLEADVSQVNVKATTTEKLGFTGRAEGIAAQATVLIQKG
notes: IspF of B. subtilis 168 (DSM 23778); ispF gene amplified from genomic DNA, ~477 bp product, cloned BamHI/XhoI into pGEX-6P-1; GST removed by PreScission protease; also called BsIspF; MEcDP synthase; source: E. coli DH5α (pGEX-6P-1), purified (Glutathione Sepharose 4 Fast Flow, Resource Q, Superdex 75)
In the case of B4, the “stoichiometry N” value [3] is reported as 3.
